Data reported in PMC8630636, “Fis Connects Two Sensory Pathways, Quorum Sensing and Surface Sensing, to Control Motility in Vibrio parahaemolyticus”.

T1: Fis (Vibrio parahaemolyticus RIMD2210633) (UniProt P64128)
T1 sequence: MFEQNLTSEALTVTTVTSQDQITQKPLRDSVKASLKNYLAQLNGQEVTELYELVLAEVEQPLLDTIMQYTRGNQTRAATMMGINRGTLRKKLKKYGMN

T2: Fis (Vibrio parahaemolyticus RIMD2210633, UniProt P64128 1-98)
T2 sequence: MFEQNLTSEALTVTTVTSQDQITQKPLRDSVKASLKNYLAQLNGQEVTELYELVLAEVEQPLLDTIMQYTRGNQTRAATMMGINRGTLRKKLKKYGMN

B1: ParaB_WT (probe 3) (dsDNA)
DNA 1: TTTTTGTCCATAAACTTAGCAACCCTATTTATGGGATAACCCAC
DNA 2: GTGGGTTATCCCATAAATAGGGTTGCTAAGTTTATGGACAAAAA
B2: ParaB_mut (probe 3) (dsDNA)
DNA 1: TTTTTATCACTCCTCGTAGAAACCCTATTTATGGGATAACCCAC
DNA 2: GTGGGTTATCCCATAAATAGGGTTTCTACGAGGAGTGATAAAAA
B3: Qrr3coding_mut (dsDNA)
DNA 1: CCTTCTTAAGCCGAGAGTATCTTAGATAAATGACGTTGTTAGTGAA
DNA 2: TTCACTAACAACGTCATTTATCTAAGATACTCTCGGCTTAAGAAGG

What follows are molecules tested against T1, Fis (Vibrio parahaemolyticus RIMD2210633) (assay: EMSA). Details: 10 mM Tris, 150 mM KCl, 0.1 mM DTT, 0.1 mM EDTA, 5% PEG, pH 7.4, 20 min at room temperature; 30 ng DNA; 6% native gel in 1x TAE at 4 C.
In the case of “GAGCTCTCCTAGGTACCAACCGTGAAATCCATTTACTGAGGTATTTTTCCTCATTAATTAGCAGTATAGGGTAAAAATATGAAAGCTAATGGATAATCATAAAGTAGTAGTTGGTTTTTTGCTGAGAAAGTGATTAGTAGCAATGTAACAAGTGGCATATTTGCATGCTATTGCATTTTGCAAATGCAATTTGCGAAAGTGCTGGTTAATAATGCGTCGATATGCACCTGGATCTATTAAAAAACGGCTTTTTTAAAGTTGGCACGCATCGTGCTTTATCTAGAG (double strand) [Pqrr4]”, the binding is reported as “binds”. “CCATTTGAAAAGGGATTGAGTGTTGTTGATAGAGTTTTTTTTACTGGAGATTTGATACGTTAACTGGATTTTTGTAACATTAAAATGGAAGTGTGATTTTGCTCAATAGCACAAAAGTCCAGTCCGGTGT (double strand) [VPA1424 regulatory region (negative control)]” was tested, and the binding was “binds more weakly”. With “TCACGCGAATACGCACTTTAATACGTATGTCTAATGTTTATACGCGACCACTTTCGCCTAAAAGTTTAGGTATAGTTGATAATTAGTCGACTTAAGCAATCTATGTACCAAAATCAACGCCAAAATAATGACTCAAAGCTAAATAACAGCACAATCCATTG (double strand) [PflhA]” the binding was “binds”. For “TATGTTAAGTTTCATAAAATGGCTTGATGTTTAAATGAACAGTTAATTTTTAGACCATATATAGCGAGATCTAAAGTAGTTCAAACAAATGTACGGTCTAACTCTTAGCTGCGAGAACAAACCACTTGGATATACGCTC (double strand) [PscrABC probe 3]”, the binding was “binds”. For “CTTAATAATAGTTTTATCTATAAACAAACAGTGAGCTTTGTTATAAATTCATTAAAAATTTAACTTTGTATTAATTAGAAAATTCAGCGTCATATTTGTTCAACTGCGACTATTCTTTTTATAACCAAGTAATCTC (double strand) [PscrABC probe 2]”, the binding was “binds”. In the case of “AATCTACTTGTTGTTATAGCCAGAGCTGGTGGGTTATCCCATAAATAGGGTTGCTAAGTTTATGGACAAAAACGTCACTGGGTGTTTTTTGTGTCCTTTTTAACACCTTTATATATTGCTCAAAAATTAAGTGTTTTCGATCATGATTAACG (double strand) [ParaB probe 2]”, the binding is reported as “binds”. With “AGCCTGACGTTGGTAAGGTGCGCTAAAACACCAAAATATGCCGAGTTAAAAGATACCAAAAATCGATGTACTTCCTCTGTAGGAATAGTCCTATTTACATAGCAGGAAACACCTAAAGCAGCGCTTTATTAACGGCTTAATCAACACGTCACATTCCTAAAATGAATTAAATATTTTCAGCTTTTTAGTCGCCTTGTCTTATAGGGAAACACTAGATGTTTTCGAGAGGAAGGCGGAACACATA (double strand) [PlafB]” the binding was “binds”. For “CCATCCACTGGTAGAGGTGAGTGTTCGCTGTACATATTTGTGCATCCTTGACCATTTGTTAGTGATAAAAATCACAGCGGAAAAATGTAGCAATTTTGTCCATTCATTTAGCTACAGAGGCTATGAAGCAGCTCTCAA (double strand) [ParaB probe 1]”, the binding was “binds”. With “GCGTTTATCATAAAAATAGTCAATTTAATGAATATTTTAATATGTATTCAGTTGTTTATTGGTTGGAGGCGAAACTGTTGCTTATGTCATCAAATAAGCTAAAAAAGTGGAACTAAAGTCACTTAATGGCAGAGTAAAAAATTAAAG (double strand) [PscrABC probe 1]” the binding was “binds”. “CATAGGTTCACCTTTAAGAATTATTGTTTGTGTTATGGTTCACATTTATTTCAGTTACCGGTAACATGTTACCGATAACATGAATAAGATAAACCCATATTTTAAAGTGAATTCAAAAATTGAGATCACGCGCAAATT (double strand) [PgntK probe 1]” was tested, and the binding was “binds”.

The molecules below were run against T2, Fis (assay: EMSA; 10 mM Tris, 150 mM KCl, 0.1 mM DTT, 0.1 mM EDTA, 5% PEG, pH 7.4, 20 min at room temperature; 30 ng DNA; 6% native gel in 1x TAE at 4 C). Details: protein: recombinant; tags: 6xHis-MBP fusion (pMAL-c5x) removed by TEV cleavage; chain copies: 2; blunt.
B1: binds. B2: no binding. B3: no binding.
